{"source": "paper PMC6197226", "about": "(2018)", "key": {"[1]": {"target": "p62 ZZ domain (aa 115-190) (human, UniProt Q13501 115-190)", "assay": "MST"}, "[2]": {"target": "p62 ZZ domain (aa 120-171) (human, UniProt Q13501 120-171)"}}, "data": [{"binder": "RAEE", "note": "[RAEE peptide]", "values": [{"measurement": "Kd", "setting": "[1]", "result": 3.2, "unit": "µM"}, {"measurement": "Kd", "setting": "[2]", "result": 14, "unit": "µM"}]}, {"binder": "REEE", "note": "[REEE peptide]", "values": [{"measurement": "Kd", "setting": "[1]", "result": 1.9, "unit": "µM"}, {"measurement": "Kd", "setting": "[2]", "result": 5.6, "unit": "µM"}]}]}
